Laboratory results: PMC12102759

B1: NCOA2 peptide 1075-1090 (Nuclear receptor coactivator 2), 16-mer library wild type / NSP3 UBl1 (ORF1ab Nsp3a Ub1, residues 819-925) (parent)
chain 1: DEGALLDQLYLALRNF
chain 2: APTKVTFGDDTVIEVQGYKSVNITFELDERIDKVLNEKCSAYTVELGTEVNEFACVVADAVIKTLQPVSELLTPLGIDLDEWSMATYYLFDESGEFKLASHMYCSFY
B2: NEK9 peptide 736-751 (Serine/threonine-protein kinase Nek9), 16-mer library wild type / NSP9 (ORF1ab Nsp9, residues 4141-4253) (parent)
chain 1: NSSGLSIGTVFQSSSP
chain 2: NNELSPVALRQMSCAAGTTQTACTDDNALAYYNTTKGGRFVLALLSDLQDLKWARFPKSDGTGTIYTELEPPCRFVTDTPKGPKVKYLYFIKGLNNLNRGMVLGSLAATVRLQ
B3: NYNRIN peptide 1032-1047 (Protein NYNRIN), 16-mer library wild type / NSP3 UBl1 (ORF1ab Nsp3a Ub1, residues 819-925) (parent)
chain 1: PSLSEEILRALSLHDP
chain 2: B1 chain 2
B4: NOTCH4 peptide 1604-1619 (Neurogenic locus notch homolog protein 4), 16-mer library wild type / NSP9 (ORF1ab Nsp9, residues 4141-4253) (parent)
chain 1: TFQGAWLGAPEPWEPL
chain 2: B2 chain 2

Variants of: B1
Settings: with NSP3 UBl1 (ORF1ab Nsp3a Ub1, residues 819-925); bait immobilised on MaxiSorp plates (10 µg), library pre-cleared on GST, 2 h binding at 4 °C, five washes; one round per day, days 1-4; value from days 2 and 3; keep out of graded; scale: average fractional NGS count over selection days 2 and 3

Row | Variant | screen value
1 | chain 1 R14F | 2.17e-05
2 | chain 1 R14Y | 5.46e-06
3 | chain 1 R14N | 2.08e-05
4 | chain 1 R14K | 0

Variants of: B2
Settings: with NSP9 (ORF1ab Nsp9, residues 4141-4253); bait immobilised on MaxiSorp plates (10 µg), library pre-cleared on GST, 2 h binding at 4 °C, five washes; one round per day, days 1-4; value from days 2 and 3; keep out of graded; scale: average fractional NGS count over selection days 2 and 3

Row | Variant | screen value
5 | chain 1 S13D | 0.000121
6 | chain 1 S13G | 1.34e-05
7 | chain 1 S13T | 0.000105
8 | chain 1 S13A | 0
9 | chain 1 S13L | 1.28e-05
10 | chain 1 S13M | 0
11 | chain 1 S13H | 8.96e-05
12 | chain 1 S13E | 0.000579
13 | chain 1 I7L | 9.86e-05
14 | chain 1 I7G | 0
15 | chain 1 I7S | 0
16 | chain 1 G4W | 0
17 | chain 1 G4I | 0
18 | chain 1 G4Y | 0
19 | chain 1 P16D | 0.000477
20 | chain 1 P16V | 0.000367
21 | chain 1 P16N | 4.17e-05
22 | chain 1 P16F | 0
23 | chain 1 P16K | 0.000119
24 | chain 1 P16T | 2.95e-05
25 | chain 1 P16M | 0
26 | chain 1 P16L | 3.5e-05

Row | Variant | screen value
27 | chain 1 P16Q | 0
28 | chain 1 L5V | 4.92e-05
29 | chain 1 L5R | 0
30 | chain 1 L5Q | 0
31 | chain 1 L5K | 0
32 | chain 1 Q12A | 1.81e-05
33 | chain 1 Q12P | 0
34 | chain 1 Q12Y | 1.21e-05
35 | chain 1 Q12D | 3.3e-05
36 | chain 1 Q12M | 1.76e-05
37 | chain 1 Q12E | 0.00594
38 | chain 1 Q12S | 4.58e-05
39 | chain 1 Q12V | 0
40 | chain 1 Q12I | 0
41 | chain 1 Q12N | 0.000424
42 | chain 1 S14D | 7.14e-05
43 | chain 1 S2H | 0
44 | chain 1 S2P | 0.00012
45 | chain 1 S2Q | 2.69e-05
46 | chain 1 S2G | 2.56e-05
47 | chain 1 G8D | 0.000107
48 | chain 1 G8T | 0

Row | Variant | screen value
49 | chain 1 G8Y | 0
50 | chain 1 F11R | 0
51 | chain 1 F11G | 0.000245
52 | chain 1 F11I | 0.000239
53 | chain 1 F11E | 0.000183
54 | chain 1 F11P | 0.0001
55 | chain 1 F11M | 0.000187
56 | chain 1 S3M | 5.44e-05
57 | chain 1 S3D | 0.000508
58 | chain 1 S3E | 0.000394
59 | chain 1 S3Q | 0.000703
60 | chain 1 S3H | 3.04e-05
61 | chain 1 S3V | 0
62 | chain 1 S3K | 0
63 | chain 1 S3W | 0.000185
64 | chain 1 S6Y | 0
65 | chain 1 S6V | 0
66 | chain 1 S6F | 0
67 | chain 1 S6A | 0.000439
68 | chain 1 S6W | 0
69 | chain 1 S6L | 9.77e-05
70 | chain 1 S6Q | 0

Variants of: B3
Settings: with NSP3 UBl1 (ORF1ab Nsp3a Ub1, residues 819-925); bait immobilised on MaxiSorp plates (10 µg), library pre-cleared on GST, 2 h binding at 4 °C, five washes; one round per day, days 1-4; value from days 2 and 3; keep out of graded; scale: average fractional NGS count over selection days 2 and 3

Row | Variant | screen value
71 | chain 1 L11H | 0
72 | chain 1 E5M | 0
73 | chain 1 E5H | 0
74 | chain 1 L13P | 0
75 | chain 1 A10M | 0
76 | chain 1 I7D | 0
77 | chain 1 I7T | 0
78 | chain 1 E6Q | 2.97e-05
79 | chain 1 H14N | 0
80 | chain 1 H14F | 7.34e-06
81 | chain 1 S2R | 0
82 | chain 1 D15K | 0
83 | chain 1 D15G | 0
84 | chain 1 D15E | 0
85 | chain 1 L8H | 0
86 | chain 1 L3A | 0

Variants of: B4
Settings: with NSP9 (ORF1ab Nsp9, residues 4141-4253); bait immobilised on MaxiSorp plates (10 µg), library pre-cleared on GST, 2 h binding at 4 °C, five washes; one round per day, days 1-4; value from days 2 and 3; keep out of graded; scale: average fractional NGS count over selection days 2 and 3

Row | Variant | screen value
87 | chain 1 F2D | 6.3e-05
88 | chain 1 F2I | 0
89 | chain 1 F2L | 0
90 | chain 1 F2A | 0.000265
91 | chain 1 F2V | 0
92 | chain 1 F2E | 3.22e-05
93 | chain 1 F2G | 5.47e-05
94 | chain 1 F2P | 6.51e-05
95 | chain 1 F2W | 0
96 | chain 1 A9W | 4.99e-05
97 | chain 1 A9M | 0
98 | chain 1 A9P | 0
99 | chain 1 G8M | 0
100 | chain 1 G8E | 0
101 | chain 1 G8V | 0
102 | chain 1 G8R | 0
103 | chain 1 G8K | 0
104 | chain 1 E11L | 0
105 | chain 1 E11H | 0
106 | chain 1 E11S | 0
107 | chain 1 E11Y | 0

Row | Variant | screen value
108 | chain 1 E11N | 0
109 | chain 1 E11D | 0
110 | chain 1 W13F | 0
111 | chain 1 W13I | 3.37e-05
112 | chain 1 W13M | 0
113 | chain 1 W13T | 4.47e-05
114 | chain 1 W13S | 2.43e-05
115 | chain 1 W13Q | 0
116 | chain 1 G4D | 0
117 | chain 1 G4R | 0
118 | chain 1 G4V | 0
119 | chain 1 G4P | 0
120 | chain 1 G4L | 0
121 | chain 1 G4Y | 0
122 | chain 1 L7D | 0
123 | chain 1 L7I | 0
124 | chain 1 L7M | 0
125 | chain 1 W6N | 0
126 | chain 1 W6I | 0
127 | chain 1 A5L | 5.68e-05
128 | chain 1 A5T | 0

Row | Variant | screen value
129 | chain 1 A5D | 0
130 | chain 1 A5E | 0
131 | chain 1 A5S | 0
132 | chain 1 A5K | 0
133 | chain 1 A5F | 4.11e-05
134 | chain 1 A5V | 0.000292
135 | chain 1 A5G | 0
136 | chain 1 P12Q | 3.5e-05
137 | chain 1 P12H | 9.54e-05
138 | chain 1 P12K | 8.35e-05
139 | chain 1 P12T | 0
140 | chain 1 P12R | 8.09e-05
141 | chain 1 P12V | 0.000373
142 | chain 1 P12W | 0
143 | chain 1 P12A | 3.02e-05
144 | chain 1 P12F | 1.76e-05
145 | chain 1 P12Y | 2.09e-05
146 | chain 1 P10L | 0
147 | chain 1 P10D | 0
148 | chain 1 P10G | 0
149 | chain 1 P10E | 4.5e-05

Row | Variant | screen value
150 | chain 1 P10I | 0
151 | chain 1 P10W | 0.00035
152 | chain 1 P10Q | 0
153 | chain 1 P10A | 0
154 | chain 1 L16G | 0
155 | chain 1 L16T | 0
156 | chain 1 L16V | 0
157 | chain 1 Q3L | 0
158 | chain 1 Q3V | 0
159 | chain 1 Q3E | 2.09e-05
160 | chain 1 P15Y | 0
161 | chain 1 P15S | 0
162 | chain 1 E14H | 0
163 | chain 1 E14F | 3.92e-05
164 | chain 1 E14G | 0
165 | chain 1 E14V | 0.000155
166 | chain 1 E14Q | 0
167 | chain 1 E14L | 7.93e-05
